Article PMC8298264, “Function of cofactor Akirin2 in the regulation of gene expression in model human neutrophil-like HL60 cells” (Bioscience Reports, 2021)

B1: sp¦Q9Y2X3¦NOP58_HUMAN (protein, UniProt Q9Y2X3 1-529, looked up)
Nucleolar protein 58: MLVLFETSVGYAIFKVLNEKKLQEVDSLWKEFETPEKANKIVKLKHFEKFQDTAEALAAFTALMEGKINKQLKKVLKKIVKEAHEPLAVADAKLGGVIKEKLNLSCIHSPVVNELMRGIRSQMDGLIPGVEPREMAAMCLGLAHSLSRYRLKFSADKVDTMIVQAISLLDDLDKELNNYIMRCREWYGWHFPELGKIISDNLTYCKCLQKVGDRKNYASAKLSELLPEEVEAEVKAAAEISMGTEVSEEDICNILHLCTQVIEISEYRTQLYEYLQNRMMAIAPNVTVMVGELVGARLIAHAGSLLNLAKHAASTVQILGAEKALFRALKSRRDTPKYGLIYHASLVGQTSPKHKGKISRMLAAKTVLAIRYDAFGEDSSSAMGVENRAKLEARLRTLEDRGIRKISGTGKALAKTEKYEHKSEVKTYDPSGDSTLPTCSKKRKIEQVDKEDEITEKKAKKAKIKVKVEEEEEEKVAEEEETSVKKKKKRGKKKHIKEEPLSEEEPCTSTAIASPEKKKKKKKKRENED
B2: sp¦O95373¦IPO7_HUMAN (protein, UniProt O95373 1-1038, looked up)
Importin-7: MDPNTIIEALRGTMDPALREAAERQLNEAHKSLNFVSTLLQITMSEQLDLPVRQAGVIYLKNMITQYWPDRETAPGDISPYTIPEEDRHCIRENIVEAIIHSPELIRVQLTTCIHHIIKHDYPSRWTAIVDKIGFYLQSDNSACWLGILLCLYQLVKNYEYKKPEERSPLVAAMQHFLPVLKDRFIQLLSDQSDQSVLIQKQIFKIFYALVQYTLPLELINQQNLTEWIEILKTVVNRDVPNETLQVEEDDRPELPWWKCKKWALHILARLFERYGSPGNVSKEYNEFAEVFLKAFAVGVQQVLLKVLYQYKEKQYMAPRVLQQTLNYINQGVSHALTWKNLKPHIQGIIQDVIFPLMCYTDADEELWQEDPYEYIRMKFDVFEDFISPTTAAQTLLFTACSKRKEVLQKTMGFCYQILTEPNADPRKKDGALHMIGSLAEILLKKKIYKDQMEYMLQNHVFPLFSSELGYMRARACWVLHYFCEVKFKSDQNLQTALELTRRCLIDDREMPVKVEAAIALQVLISNQEKAKEYITPFIRPVMQALLHIIRETENDDLTNVIQKMICEYSEEVTPIAVEMTQHLAMTFNQVIQTGPDEEGSDDKAVTAMGILNTIDTLLSVVEDHKEITQQLEGICLQVIGTVLQQHVLEFYEEIFSLAHSLTCQQVSPQMWQLLPLVFEVFQQDGFDYFTDMMPLLHNYVTVDTDTLLSDTKYLEMIYSMCKKVLTGVAGEDAECHAAKLLEVIILQCKGRGIDQCIPLFVEAALERLTREVKTSELRTMCLQVAIAALYYNPHLLLNTLENLRFPNNVEPVTNHFITQWLNDVDCFLGLHDRKMCVLGLCALIDMEQIPQVLNQVSGQILPAFILLFNGLKRAYACHAEHENDSDDDDEAEDDDETEELGSDEDDIDEDGQEYLEILAKQAGEDGDDEDWEEDDAEETALEGYSTIIDDEDNPVDEYQIFKAIFQTIQNRNPVWYQALTHGLNEEQRKQLQDIATLADQRRAAHESKMIEKHGGYKFSAPVVPSSFNFGGPAPGMN
B3: sp¦P20645¦MPRD_HUMAN (protein, UniProt P20645 27-277, looked up)
Cation-dependent …: TEEKTCDLVGEKGKESEKELALVKRLKPLFNKSFESTVGQGSDTYIYIFRVCREAGNHTSGAGLVQINKSNGKETVVGRLNETHIFNGSNWIMLIYKGGDEYDNHCGKEQRRAVVMISCNRHTLADNFNPVSEERGKVQDCFYLFEMDSSLACSPEISHLSVGSILLVTFASLVAVYVVGGFLYQRLVVGAKGMEQFPHLAFWQDLGNLVADGCDFVCRSKPRNVPAAYRGVGDDQLGEESEERDDHLLPM
B4: sp¦Q9H845¦ACAD9_HUMAN (protein, UniProt Q9H845 38-621, looked up)
Complex I assembly factor …: AFAKELFLGKIKKKEVFPFPEVSQDELNEINQFLGPVEKFFTEEVDSRKIDQEGKIPDETLEKLKSLGLFGLQVPEEYGGLGFSNTMYSRLGEIISMDGSITVTLAAHQAIGLKGIILAGTEEQKAKYLPKLASGEHIAAFCLTEPASGSDAASIRSRATLSEDKKHYILNGSKVWITNGGLANIFTVFAKTEVVDSDGSVKDKITAFIVERDFGGVTNGKPEDKLGIRGSNTCEVHFENTKIPVENILGEVGDGFKVAMNILNSGRFSMGSVVAGLLKRLIEMTAEYACTRKQFNKRLSEFGLIQEKFALMAQKAYVMESMTYLTAGMLDQPGFPDCSIEAAMVKVFSSEAAWQCVSEALQILGGLGYTRDYPYERILRDTRILLIFEGTNEILRMYIALTGLQHAGRILTTRIHELKQAKVSTVMDTVGRRLRDSLGRTVDLGLTGNHGVVHPSLADSANKFEENTYCFGRTVETLLLRFGKTIMEEQLVLKRVANILINLYGMTAVLSRASRSIRIGLRNHDHEVLLANTFCVEAYLQNLFSLSQLDKYAPENLDEQIKKVSQQILEKRAYICAHPLDRTC
B5: sp¦P41252¦SYIC_HUMAN (protein, UniProt P41252 1-1262, looked up)
Isoleucine--tRNA ligase, …: MLQQVPENINFPAEEEKILEFWTEFNCFQECLKQSKHKPKFTFYDGPPFATGLPHYGHILAGTIKDIVTRYAHQSGFHVDRRFGWDCHGLPVEYEIDKTLGIRGPEDVAKMGITEYNNQCRAIVMRYSAEWKSTVSRLGRWIDFDNDYKTLYPQFMESVWWVFKQLYDKGLVYRGVKVMPFSTACNTPLSNFESHQNYKDVQDPSVFVTFPLEEDETVSLVAWTTTPWTLPSNLAVCVNPEMQYVKIKDVARGRLLILMEARLSALYKLESDYEILERFPGAYLKGKKYRPLFDYFLKCKENGAFTVLVDNYVKEEEGTGVVHQAPYFGAEDYRVCMDFNIIRKDSLPVCPVDASGCFTTEVTDFAGQYVKDADKSIIRTLKEQGRLLVATTFTHSYPFCWRSDTPLIYKAVPSWFVRVENMVDQLLRNNDLCYWVPELVREKRFGNWLKDARDWTISRNRYWGTPIPLWVSDDFEEVVCIGSVAELEELSGAKISDLHRESVDHLTIPSRCGKGSLHRISEVFDCWFESGSMPYAQVHYPFENKREFEDAFPADFIAEGIDQTRGWFYTLLVLATALFGQPPFKNVIVNGLVLASDGQKMSKRKKNYPDPVSIIQKYGADALRLYLINSPVVRAENLRFKEEGVRDVLKDVLLPWYNAYRFLIQNVLRLQKEEEIEFLYNENTVRESPNITDRWILSFMQSLIGFFETEMAAYRLYTVVPRLVKFVDILTNWYVRMNRRRLKGENGMEDCVMALETLFSVLLSLCRLMAPYTPFLTELMYQNLKVLIDPVSVQDKDTLSIHYLMLPRVREELIDKKTESAVSQMQSVIELGRVIRDRKTIPIKYPLKEIVVIHQDPEALKDIKSLEKYIIEELNVRKVTLSTDKNKYGIRLRAEPDHMVLGKRLKGAFKAVMTSIKQLSSEELEQFQKTGTIVVEGHELHDEDIRLMYTFDQATGGTAQFEAHSDAQALVLLDVTPDQSMVDEGMAREVINRIQKLRKKCNLVPTDEITVYYKAKSEGTYLNSVIESHTEFIFTTIKAPLKPYPVSPSDKVLIQEKTQLKGSELEITLTRGSSLPGPACAYVNLNICANGSEQGGVLLLENPKGDNRLDLLKLKSVVTSIFGVKNTELAVFHDETEIQNQTDLLSLSGKTLCVTAGSAPSLINSSSTLLCQYINLQLLNAKPQECLMGTVGTLLLENPLGQNGLTHQGLLYEAAKVFGLRSRKLKLFLNETQTQEITEDIPVKTLNMKTVYVSVLPTTADF
B6: sp¦P23381¦SYWC_HUMAN (protein, UniProt P23381 2-471, looked up)
Tryptophan--tRNA ligase, …: PNSEPASLLELFNSIATQGELVRSLKAGNASKDEIDSAVKMLVSLKMSYKAAAGEDYKADCPPGNPAPTSNHGPDATEAEEDFVDPWTVQTSSAKGIDYDKLIVRFGSSKIDKELINRIERATGQRPHHFLRRGIFFSHRDMNQVLDAYENKKPFYLYTGRGPSSEAMHVGHLIPFIFTKWLQDVFNVPLVIQMTDDEKYLWKDLTLDQAYSYAVENAKDIIACGFDINKTFIFSDLDYMGMSSGFYKNVVKIQKHVTFNQVKGIFGFTDSDCIGKISFPAIQAAPSFSNSFPQIFRDRTDIQCLIPCAIDQDPYFRMTRDVAPRIGYPKPALLHSTFFPALQGAQTKMSASDPNSSIFLTDTAKQIKTKVNKHAFSGGRDTIEEHRQFGGNCDVDVSFMYLTFFLEDDDKLEQIRKDYTSGAMLTGELKKALIEVLQPLIAEHQARRKEVTDEIVKEFMTPRKLSFDFQ
B7: sp¦Q15907¦RB11B_HUMAN (protein, UniProt Q15907 2-215, looked up)
Ras-related protein Rab-11B: GTRDDEYDYLFKVVLIGDSGVGKSNLLSRFTRNEFNLESKSTIGVEFATRSIQVDGKTIKAQIWDTAGQERYRAITSAYYRGAVGALLVYDIAKHLTYENVERWLKELRDHADSNIVIMLVGNKSDLRHLRAVPTDEARAFAEKNNLSFIETSALDSTNVEEAFKNILTEIYRIVSQKQIADRAAHDESPGNNVVDISVPPTTDGQKPNKLQCC
B8: sp¦P30048¦PRDX3_HUMAN (protein, UniProt P30048 62-256, looked up)
Thioredoxin-dependent …: APAVTQHAPYFKGTAVVNGEFKDLSLDDFKGKYLVLFFYPLDFTFVCPTEIVAFSDKANEFHDVNCEVVAVSVDSHFSHLAWINTPRKNGGLGHMNIALLSDLTKQISRDYGVLLEGSGLALRGLFIIDPNGVIKHLSVNDLPVGRSVEETLRLVKAFQYVETHGEVCPANWTPDSPTIKPSPAASKEYFQKVNQ

The molecules below were run on human HL60 cells (assay: SWATH-MS proteomics, differential protein representation, akirin2 KO vs WT HL60 cells). Details: akirin2 KO vs WT HL60 cells; sheet "Under-represented in KO".
Assay type: cell-based
Summary of the method: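 Proteins from WT and akirin2 KO HL60 cells (n=3 biological replicates) were FASP trypsin-digested and analyzed by SWATH-MS DIA with variable windows against an IDA-derived spectral library. Identifications at 1% global FDR; quantities normalized to total area sums of all detected proteins.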
In the case of B1, the “Fold Change” value is reported as 0.6507 and the “Log (Fold Change)” value is reported as -0.1866. With B2 the “Fold Change” value was 0.28 and the “Log (Fold Change)” value was -0.5528. B3 was tested, and the “Fold Change” value was 0.6378 and the “Log (Fold Change)” value was -0.1953. For B4, the “Fold Change” value was 0.6441 and the “Log (Fold Change)” value was -0.191. B5 was tested, and the “Fold Change” value was 0.645 and the “Log (Fold Change)” value was -0.1904. For B6, the “Fold Change” value was 0.6341 and the “Log (Fold Change)” value was -0.1979. With B7 the “Fold Change” value was 0.6332 and the “Log (Fold Change)” value was -0.1984. In the case of B8, the “Fold Change” value is reported as 0.6339 and the “Log (Fold Change)” value is reported as -0.198.
